{"source": "paper PMC10899632", "about": "“Archaeal histone-based chromatin structures regulate transcription elongation rates” (Communications Biology, 2024)", "proteins": {"B1": {"name": "Thermococcus kodakarensis histone A protein (HTkA^WT) (natural protein)", "chain": "not shown", "notes": "Histone A (HTkA) of Thermococcus kodakarensis, encoded by TK1413 on plasmid pTS600; No tag is mentioned; purified by heparin and size exclusion; also called TK1413; recombinant HTkA; source: E. coli Rosetta 2 (DE3), purified (heat treatment, HiTrap Heparin, Sephacryl S-100)"}}, "target": "the molecule itself", "assay": "SDS-PAGE and Western blot of the purified protein; 1 ug purified histone on 16.5% Tris-Tricine SDS gels, Coomassie stain or Western blot with polyclonal anti-HTkA antibodies; dimers and higher-order species persist after extensive heating", "data": [{"protein": "B1", "values": [{"measurement": "binding result", "value": "binds"}]}]}
